Assay [1] concerns the target T1, tau phospho-peptide of the direct ELISA of Example 11.
T1 construct: also called pT217 peptide; pT212/pT217 peptide
Briefly: direct ELISA on plate-coated tau phospho-peptide (10 ng/mL), detection with HRPO-labelled anti-Fab antibody. As to the method:
(§1) Binding to tau phospho-peptide was analysed by ELISA where peptide (10 ng/mL) was directly coated to the plate overnight. […] After incubation with antibodies, plates were washed and 50 μL per well of HRPO labelled anti-Fab antibody (Jackson Immunoresearch laboratories) (diluted 1:10000 in blocking buffer). After another washing step detection was performed with “One step” TMB (Thermo Scientific) according to the manufacturers' instructions. Plates were analysed in EnVision® 2102 Multilabel Reader (Perkin Elmer, Waltham, Mass., USA). Binding curves were generated using GraphPad Prism7.0 software.

Assay [2] has as its target T1, tau phospho-peptide of the direct ELISA …. Briefly: direct ELISA, peptide coated. As to the method:
as §1
For orientation: In an ELISA, binding on a coated surface is turned into a signal by an enzyme label.

Assay [3] has as its target T2, PHF-tau (paired helical filament tau isolated from Alzheimer's disease brain) (human, UniProt P10636-8 2-441, limits assumed, hyper-phosphorylated, aggregated; sites not listed for the preparation).
T2 construct: also called enriched PHF-tau; ePHF-tau
The assay is described as follows: SPR ProteOn, PHF-tau capture-coupled via HT7, bivalent model. As to the method: (§2) Affinity matured monoclonal antibodies were tested for binding to PHF-tau isolated from Alzheimer's disease brain.
(§3) A GLC sensor chip was covalently immobilized with a mouse anti-tau antibody, HT7 (ThermoFisher, catalog# MN1000) using the vendor recommended protocol for amine-coupling chemistry (˜5000 response units, RU). The coupling buffer was 10 mM, pH 4.5 sodium acetate. PHF-tau was prepared by 2-times centrifugation at 5000×g in 5° C. for 10 min. […] After capture-coupling, the surface was activated and deactivated to generate a homogenous PHF-tau surface for antibody binding studies. The anti-tau antibodies and their Fabs (prepared in running buffer, 0.024-75 nM at 5-fold dilutions) were injected at 50 μL/min over the PHF-tau surface to measure binding. The association and dissociation profiles were monitored for 4 minutes and 2 hours, respectively. After dissociation, the sensor chip was regenerated using multiple injections of 10 mM Glycine pH 2.0 and the running buffer. A reference surface (without any PHF-tau) was used to monitor non-specific binding of the injected mAbs or Fabs. HT7 antibody was used as a positive control. The binding sensorgrams for mAbs were fit using a bivalent binding model where the apparent affinity or avidity-driven binding (KD) was reported as the ratio of off-rate and on-rate (koff/kₒₙ). A 1:1 Langmuir binding model was used for kinetics analysis of Fabs.

Assay [4] concerns the target T3, Peptide-2 (human, phosphothreonine 212, phosphothreonine 217 (tau 2N4R numbering); short chain biotin (SCBiot) and dPEG4 at the N-terminus; amide at the C-terminus).
T3 construct: also called pT212/pT217-tau peptide (Peptide-2)
Briefly: SPR ProteOn, mAb captured, peptide as analyte. As for the experimental part: (§4) A subset of HFA-PT3 monoclonal antibody variants, selected based on biophysical characterization and ELISA binding to PHF, were analyzed by Surface Plasmon Resonance (SPR) with a ProteOn XPR36 for binding to the following phosphopeptides: pT212/pT217-tau peptide (Peptide-2, SEQ ID NO: 48) and pT212-tau peptide (Peptide-8, SEQ ID NO: 54). All experiments were performed at 25° C. using PBST, pH 7.4, (Bio-Rad Cat#176-2720) as both running buffer and sample dilution buffer.
(§5) Monoclonal antibody/Peptide binding. […] Anti-human IgG was amine-coupled to the chip surface using EDC/NHS, then washed with ethanolamine. Antibodies were diluted to 2 μg/mL in PBST and injected on the surface for 5 min at 30 μL/min to achieve a maximum density of 900-1000 RU. Peptides were injected as analytes at 60 μL/min for 3 min, followed by 5 min dissociation. Peptide-2 was diluted in PBST to generate a three-fold concentration series (0-30 nM) and measured in duplicate. Single measurements of monoclonal antibody binding to Peptide-8 were recorded over the concentration range 0-100 nM.
(§6) Data were double referenced by subtraction of the interspot response, and the curves generated by the buffer only injection. The chip surface was regenerated with 0.85% phosphoric acid, followed by PBST injection before the next antibody titration injection. Data processing and analysis were performed using instrument software. The data were fit using a simple Langmuir 1:1 binding model.

The target in assay [5] is T2, PHF-tau (paired helical filament tau …). Briefly: SPR ProteOn, PHF-tau capture-coupled via HT7, bivalent model. As for the experimental part: A subset of HFA-PT3 monoclonal antibodies was tested for binding to PHF-tau isolated from Alzheimer's disease brain. All interactions were studied at 25° C. using PBS pH 7.4, supplemented with 3 mM EDTA, and 0.005% Tween 20 as running or system buffer. HT7 (Pierce, catalog #MN1000), a mouse anti-tau antibody, was used as a positive control.
The interaction of anti-tau monoclonal antibodies with PHF-tau was analyzed by ProteOn using a biosensor surface prepared by capture-coupling PHF-tau using HT7 as the capture reagent. PHF-tau was prepared by 2-times centrifugation at 5000×g at 5° C. for 10 min; the supernatant from the second centrifugation was then diluted 1/40 in running buffer. To prepare the chip, HT7 was covalently immobilized to the surface of a GLC (ProteOn) sensor chip using the manufacturer's instructions for amine-coupling chemistry (˜5000 response units (RU)). The coupling buffer was 10 mM sodium acetate, pH 4.5. After HT7 immobilization, PHF-tau was injected and captured (˜300 RU) by HT7. After capture, PHF-tau was covalently immobilized to the sensor chip by activation of the chip using the manufacturer's instructions for amine-coupling chemistry. Remaining reactive sites were blocked by the injection of ethanolamine. After preparation and stabilization of the PHF-tau-modified surface and reference surface (containing no antigen), the anti-tau antibodies were diluted in the running buffer and injected in solution (0.12-75 nM in 5-fold dilutions). The association was monitored for 3 minutes (120 μL injected at 40 μL/min). The dissociation was monitored for 15 minutes. Regeneration of the sensor surface was performed using 10 mM Gly pH 2.0. The data for monoclonal antibodies were fit using a bivalent binding model where the apparent affinity (KD) was reported as the ratio of koff/kₒₙ. A Langmuir 1:1 binding model was used for kinetics analysis of Fabs.
The source holds these as a separate data set.

In assay [6] the target is T3, Peptide-2. Briefly: SPR ProteOn, mAb captured, peptide as analyte; range of n=2; upper end of n=2 range. As to the method:
as §4, §5, §6

A further assay has as its target T4, Peptide-8 (human, phosphothreonine 212 (tau 2N4R numbering); SCBiot and dPEG4 at the N-terminus; amide at the C-terminus).
T4 construct: also called pT212-tau peptide (Peptide-8)
Briefly: SPR ProteOn, mAb captured by anti-human Fc, peptide as analyte. As for the experimental part: as §4, §5, §6

For assay [7], the target named is T3, Peptide-2. The assay is described as follows: SPR ProteOn, mAb captured, peptide as analyte; range of n=2. As for the experimental part:
as §4, §5, §6

Assay [8] addresses T2, PHF-tau (paired helical filament tau …). Briefly: SPR ProteOn, PHF-tau on chip.
Assay [9] has the same target. Briefly: SPR ProteOn, PHF-tau capture-coupled via HT7, 1:1 model. As for the experimental part: as §2, §3

Numbering of substitutions follows the chain as printed. Numbers in names are those of the source. Where “and” joins values, the source holds several entries; their conditions need not be identical. Equal values may be shown once.

T3 sequence (peptide, as listed by the source): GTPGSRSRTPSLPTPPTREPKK
T2 sequence (P10636 other isoform, or with tags, fused parts or gaps limits assumed): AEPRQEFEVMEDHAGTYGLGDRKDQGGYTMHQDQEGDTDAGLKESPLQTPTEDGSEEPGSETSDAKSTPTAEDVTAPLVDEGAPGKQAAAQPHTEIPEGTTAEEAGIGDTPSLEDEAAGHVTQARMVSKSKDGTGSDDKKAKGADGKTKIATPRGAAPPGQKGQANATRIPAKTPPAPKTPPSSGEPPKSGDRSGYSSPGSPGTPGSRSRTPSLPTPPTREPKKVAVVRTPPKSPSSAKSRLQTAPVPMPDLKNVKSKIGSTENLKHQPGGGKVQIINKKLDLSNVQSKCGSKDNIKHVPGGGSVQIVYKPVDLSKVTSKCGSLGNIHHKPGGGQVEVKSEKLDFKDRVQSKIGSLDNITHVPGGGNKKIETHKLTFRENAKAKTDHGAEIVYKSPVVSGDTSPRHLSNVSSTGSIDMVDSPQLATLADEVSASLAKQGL

B1: B333 (antibody, human IgG1, kappa, V domains shown)
VH: QVQLVESGGGVVQPGRSLRLSCAASGFTFSSYAMSWVRQAPGKGLEWVASISKGGNTYYADSVKGRFTISRDNSKNTLYLQMNSLRAEDTAVYYCARGWGDYGWFAYWGQVTLVTVSS
VL: DIQMTQSPSSLSASVGDRVTITCKASQDINRWLNWFQQKPGKAPKSLIYRANRLLDGVPSRFSGSGSGTDFTLTISSLQPEDFATYYCLQYDEFPLTFGQGTKLEIKR
notes: also called PT1B333
In general, EC50 (read off the curve) refers to the concentration needed to bring the measured effect to its halfway point. Read a low EC50 (read off the curve) as higher potency in that assay. As a reminder, the EC50 is the concentration needed to bring the measured effect to its halfway point. Low readings indicate an effect from little substance, high ones a need for much substance. As usually defined, the koff is the first-order rate constant of dissociation. Usually kon stands for the second-order rate constant of association. Low values mean slower complex formation, high ones faster complex formation. As for B1, the half-maximal effective concentration (EC50 (read off the curve)) in [1] was around 90 pM. In addition, the concentration giving a half-maximal response (EC50) in assay [2] is 164 pM. In [3], this molecule registered a Kd of 2.5 pM, a koff of 6.8e-06 s⁻¹ and a kon of 2.68e+06 M⁻¹ s⁻¹.

B2: B252 (antibody, human IgG1, V domains shown)
VH: B1 VH with V11L, Q13K, R16G, V37I, A49S, S74A, T77S
VL: DIVMTQTPLSSPVTLGQPASISCKASQDINRYLNWLQQRPGQPPRLLIYRANRLLDGVPDRFSGSGAGTDFTLKISRVEAEDVGVYYCLQYDEFPLTFGQGTKLEIK
notes: Humanized (HFA) PT3 variant, human IgG1/kappa; also called VH93/VL80
B2: the Kd in the assay with Peptide-2 [4] is 172 pM; in assay [5] it was 32 pM; with Peptide-8, 32600 pM; with Peptide-2 [7] it was 126 to 217 pM. For the same molecule, the koff was 0.000901 s⁻¹ with Peptide-2 [4]; 4.28e-05 s⁻¹ in assay [5]; 0.000946 s⁻¹ in the assay with Peptide-2 [6]; 0.0242 s⁻¹ with Peptide-8; 0.000856 s⁻¹ with Peptide-2 [7]. The association rate constant (kon) was found to be 5.75e+06 M⁻¹ s⁻¹ with Peptide-2 [4]; 1.32e+06 M⁻¹ s⁻¹ in assay [5]; 7.54e+06 M⁻¹ s⁻¹ with Peptide-2 [6]; 742000 M⁻¹ s⁻¹ in the assay with Peptide-8; 3.95e+06 M⁻¹ s⁻¹ with Peptide-2 [7].

B3: B352 (IgG4 mAb) (antibody, V domains shown)
VH: B1 VH
VL: DIQMTQSPSSLSASVGDRVTITCKASQDINRYLNWFQQKPGKAPKSLIYRANRLLDGVPSRFSGSGSGTDFTLTISSLQPEDFATYYCLQYDEFPLTFGQGTKLEIK
notes: IgG4 variant of B296 with the same variable regions; also called B296 as hIgG4
Regarding B3, in [5], the Kd is 43 pM, the koff was 1.11e-05 s⁻¹ and the kon amounted to 255000 M⁻¹ s⁻¹. In assay [8], the “fold difference in affinity against B296” value was at most 2 fold.

B4: B332 (Fab of B809) (Fab, V domains shown)
VH: B1 VH with S30T, S52T, D101I
VL: B3 VL
In the case of B4, in [9], the Kd worked out at 25.8 pM, the koff came out at 0.00012 s⁻¹ and the kon was found to be 4.64e+06 M⁻¹ s⁻¹.

B5: B331 (Fab of B333) (Fab, V domains shown)
VH: B1 VH
VL: B3 VL with Y32W
For B5, in assay [9], the Kd stood at 31 pM, the koff is 5.31e-05 s⁻¹ and the on-rate (kon) turned out to be 1.72e+06 M⁻¹ s⁻¹.

B6: B282 (antibody, human IgG1, V domains shown)
VH: B1 VH with V11L, Q13K, R16G, V37I, A49S, S74A, T77S
VL: B3 VL
notes: Humanized (HFA) PT3 variant, human IgG1/kappa; also called VH93/VL77
Regarding B6, the Kd in the assay with Peptide-2 [4] was 445 pM; in assay [5], 61 pM; with Peptide-8, 86500 pM; with Peptide-2 [7], 360 to 529 pM. In addition, the off-rate (koff) stood at 0.00132 s⁻¹ with Peptide-2 [4]; 4.08e-05 s⁻¹ in [5]; 0.0014 s⁻¹ with Peptide-2 [6]; 0.0382 s⁻¹ with Peptide-8; 0.00124 s⁻¹ with Peptide-2 [7]. Besides, the kon with Peptide-2 [4] turned out to be 3.12e+06 M⁻¹ s⁻¹; in assay [5], 665000 M⁻¹ s⁻¹; with Peptide-2 [6], 3.89e+06 M⁻¹ s⁻¹; with Peptide-8 it was 442000 M⁻¹ s⁻¹; with Peptide-2 [7], 2.34e+06 M⁻¹ s⁻¹.

B7: B297 (antibody, human IgG1, V domains shown)
VH: B1 VH with V11L, Q13K, R16G, V37I, A49S, S74A, T77S
VL: B3 VL with D56S
notes: Humanized (HFA) PT3 variant, human IgG1/kappa; it is built from VL77 with D56S; also called VH93/VL78
Take B7: in assay [5], the Kd is 42 pM, the off-rate (koff) worked out at 6.03e-05 s⁻¹ and the kon worked out at 1.44e+06 M⁻¹ s⁻¹.

B8: B234 (antibody, human IgG1, V domains shown)
VH: EVKLVESGGDLVKPGGSLKLSCAASGFTFSSYAMSWVRQNPEKRLEWVASISKGGNTYYPNSVKGRFTISRDNARNILYLQMSSLRSEDTALYYCARGWGDYGWFAYWGQVTLVTVSA
VL: DIKMTQSPSSMYASLGERVTITCKASQDINRYLNWFQQKPGKSPKTLIYRANRLLDGVPSRFSGSGSGQDYSLTISSLDYEDMGIYYCLQYDEFPLTFGDGTKLELK
notes: Mouse PT3 variable regions (VH10/VL7) with human IgG1/kappa constant region; also called mouse PT3, hIgG1
B8: in the assay with Peptide-2 [4], the Kd turned out to be 29.2 pM, the koff came out at 0.000325 s⁻¹ and the on-rate (kon) amounted to 9.35e+06 M⁻¹ s⁻¹. Besides, in the assay with Peptide-8, the Kd worked out at 3480 pM, the koff turned out to be 0.00802 s⁻¹ and the kon is 2.31e+06 M⁻¹ s⁻¹. Further, in the assay with Peptide-2 [7], the Kd was in the range of 27.8 to 30.6 pM; the off-rate constant (koff) was 0.000242 s⁻¹ and 0.000408 s⁻¹; the kon was 8.7e+06 M⁻¹ s⁻¹ and 1e+07 M⁻¹ s⁻¹.

The values are drawn from patent US20230047413A1 (Janssen / Centocor, published 2023).
